Substitutions are numbered along the chain they refer to. Names may count otherwise.
B1: L27V: 9B8 opt+K33N variant with L27V, T39T, K43R, Y68D (protein)
chain: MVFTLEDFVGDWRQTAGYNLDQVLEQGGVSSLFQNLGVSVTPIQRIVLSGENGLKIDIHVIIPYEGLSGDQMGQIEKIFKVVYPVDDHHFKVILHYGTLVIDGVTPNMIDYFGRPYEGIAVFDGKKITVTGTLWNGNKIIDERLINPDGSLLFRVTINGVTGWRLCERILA
B2: 9B8: IV variant with Q18L, F68Y, L72Q, M75K; in Tables 12, 22, 23, 26, 27 “9B8” stands for 9B8 opt (protein)
chain: B1 chain with V29L, N35K, R45K, D70Y
B3: 9B8 opt: codon optimized version of the 9B8 variant (protein)
chain: B1 chain with V29L, N35K, R45K, D70Y

Experiments:
[1] = Enzyme kinetics of OgLuc variants (Km, Vmax); format: biochemical, E. coli; settings: PBI-3939, average of three replicates
Protocol: Using methods known in the art, enzyme kinetic assays measuring luminescence were performed with the lysates of E. coli containing N and the IV variants 15C1, 9B8, 9F6, and 9A3. […] Two fold serial dilutions of PBI-3939 in the assay buffer described previously in Example 26 were assayed with the diluted lysates. […] Variants 9B8 and 9F6 had higher Km values compared to IV while Km values for the other variants were unchanged.
Luminescence was measured on a TECAN® INFINITE® F500 luminometer.
The enzyme kinetics values were determined for the OgLuc variants as described previously, except luminescence was measured using a GLOMAX® luminometer. Three replicates were used for each variant.

[2] = Luminescence of OgLuc variants expressed in HEK293 cells; format: cell-based, human; settings: for Increase in Luminescence: HEK293: normalized to 9B8 opt
Protocol: The PCR library in the pF4Ag-based non-fusion background was screened for additional variants with increased luminescence compared to 9B8 opt+K33N+170G (SEQ ID NOs: 68 and 69). Selected variants were then assayed in HEK293 and NIH3T3 cells. For each cell type, 15,000 cells were plated and grown overnight at 37° C. The next day, the cells were transfected as described in Example 25 with 10 ng pGL4.13 (Promega Corp.) as a transfection control and 100 ng of the OgLuc test DNA. The media was removed, and the cells were lysed with 100 μL of lysis buffer as described in Example 25 except the lysis buffer contained 100 mM MES pH 6.0 instead of HEPES, and luminescence measured using a GLOMAX® Luminometer.
Based on the above data, further combination variants were designed and generated (see Table 10) in the context of the pF4Ag-based non-fusion vector background without the 170G. The variants were analyzed in E. coli, HEK293 and NIH3T3 cells as described above and compared to 9B8 opt+K33N. The variants were also examined for luminescence with native coelenterazine.
The brightness of the variants expressed in HEK293 and NIH3T3 cells was measured as described previously. The luminescence of the variants was normalized to the luminescence generated by 9B8 opt (Table 27).
The variants 9B8 opt+K33N+T39T+K43R+Y68D (“V2”; SEQ ID NOs: 92 and 93), 9B8 opt+K33N+L27V+K43R+Y68D (SEQ ID NOs: 339 and 340), 9B8 opt+K33N+L27V+T39T+K43R+S66N (SEQ ID NOs: 341 and 342), and 9B8 opt+K33N+L27V+T39T+K43R+Y68D (“L27V”; SEQ ID NOs: 88 and 89) were subcloned into the Id-OgLuc-HT7 sandwich background as described above and assayed in HEK293 and NIH3T3 cells as described above. The luminescence generated by the sandwiched variants were compared to the luminescence generated by the […] sandwich (SEQ ID NOs: 59 and 60) (Table 38). The L27V sandwich (SEQ ID NOs: 90 and 91) and V2 sandwich (SEQ ID NOs: 94 and 95) had at least 1.3× fold-increase in luminescence in HEK293 and NIH3T3 cells.
The sandwich and non-sandwich versions of the variants V2, 9B8 opt+K33N+L27V+K43R+Y68D, 9B8 opt+K33N+L27V+T39T+K43R+S66N, and L27V were assayed in HEK293 and NIH3T3 cells as described in Example 37. The luminescence generated by the non-sandwiched variants was compared to the luminescence generated by the sandwiched variants (Table 39).

[3] = format: biochemical, E. coli
Protocol: The signal stability of 15C1 with PBI-3945 and 9B8 with PBI-3889 was measured and compared to IV. E. coli containing plasmid DNA encoding 15C1, 9B8, or IV were grown and induced as described previously in 8-well replicates. Cells were lysed using a lysis buffer containing of 300 mM HEPES pH 8.0, 0.3× Passive Lysis Buffer (“PLB”; Promega Corp. Cat. No. E194A), 0.3 mg/mL lysozyme, and 0.003 U/μL RQ1 DNase. Lysates were diluted 1:1000 in lysis buffer and measured for luminescence using a TECAN® INFINITE® F500 luminometer. Measurements were taken immediately after the addition to 10 μL of diluted lysate sample of 50 μL of “Glo” 0.5% TERGITOL assay buffer (“0.5% TERGITOL”), which contained 150 mM KCl, 1 mM CDTA, 10 mM DTT, 100 mM thiourea, 0.5% TERGITOL® NP-9 (v/v), and 20 μM of either novel coelenterazines PBI-3945 or PBI 3889.
The signal stability of the variants was determined by re-reading the plate every 30 seconds for a length of time after the addition of the assay buffer to the sample. The signal half-life was determined from these measurements using methods known in the art. The average signal half-life was compared between the variants and IV. […] At t=10 min, luminescence for 15C1 with PBI-3945 and 9B8 with PBI-3889 were equivalent.
E. coli lysates containing the variants were prepared and analyzed as described previously except the assay buffer contained 0.25% TERGITOL® NP-9 (v/v), 100 mM MES pH 6.0, 1 mM CDTA, 150 mM KCl, 35 mM thiourea, 2 mM DTT, and 20 μM PBI-3939.

[4] = format: physicochemical, E. coli; settings: for ½ life hours: 60° C., assay buffer 100 mM MES pH 6.0
Protocol: Aliquots were removed at different time-points and placed on dry ice to freeze the samples. […] Luminescence was measured on a GLOMAX® luminometer (Promega Corp.).
The thermal stability of the variants at 60° C. was examined as described above, except the assay buffer contained 100 mM MES pH 6.0 instead of HEPES.

Molecule	Km [1] [µM]	Vmax [1]	Fold-Decrease in Luminescence in the Presence of Sandwich Background: HEK 293 [2]	Fold over 9B8 opt + K33N: HEK293 ([2]; luminescence, PBI-3939)	Increase in Luminescence: HEK293 [2]	Fold over Native Coelenterazine: HEK293 ([2]; relative specificity for PBI-3939)	signal half life [3] [h]	½ life hours [4] [h]	signal half-life [3]	RLU ([4]; luminescence at start of incubation (t=0))	T1/2(60° C.) ([4]; pH 7) [h]
B1	13.9	190,000,000 RLU/0.5 sec	6	0.8	1.6	97	1.9	21.7			
B2	7.7	86,000,000 RLU/0.5 sec			1.0		1.23	5.1	at least 30 min		
B3										23,283,252,000 RLU	5.7
